The target of the data set is recombinant PCNA (human PCNA cDNA, produced in E. coli from plasmid PETPCNA, purified).

B1: procaspase-9 (protein)
chain: MDEADRRLLRRCRLRLVEELQVDQLWDALLSRELFRPHMIEDIQRAGSGSRRDQARQLIIDLETRGSQALPLFISCLEDTGQDMLASFLRTNRQAAKLSKPTLENLTPVVLRPEIRKPEVLRPETPRPVDIGSGGFGDVGALESLRGNADLAYILSMEPCGHCLIINNVNFCRESGLRTRTGSNIDCEKLRRRFSSLHFMVEVKGDLTAKKMVLALLELAQQDHGALDCCVVVILSHGCQASHLQFPGAVYGTDGCPVSVEKIVNIFNGTSCPSLGGKPKLFFIQACGGEQKDHGFEVASTSPEDESPGSNPEPDATPFQEGLRTFDQLDAISSLPTPSDIFVSYSTFPGFVSWRDPKSGSWYVETLDDIFEQWAHSEDLQSLLLRVANAVSVKGIYKQMPGCFNFLRKKLFFKTS
As for B1, the “procaspase-9 cleavage in an in vitro activation assay (neutrophil cytosol, cytochrome c, dATP; western blot of caspase-9)” value is “when purified PCNA was added to the mixture, procaspase-9 cleavage was delayed, with persistent procaspase-9 (47 kDa) and diminished 37-kDa fragment detection”.

The record behind these values is US20130059773.
